Here are results for five molecules from US20190218277A1 (Chugai, published 2019).

Residue numbers refer to the chain shown, from its start. Like-named read-outs stand apart in the source and are kept apart here.

The target in assay [1] is T1, human C1q (Calbiochem) (human, UniProt P02745 23-245; P02746 28-253; P02747 29-245). In words: ELISA: antibody coated on the plate at the concentration shown, human C1q added, detected with HRP anti-human C1q, OD 450 nm.
For another assay, the target named is T2, human FcγRIa (human, UniProt P12314 16-292).
T2 construct: also called human FcγR1a
T2 sequence (P12314 16-292 limits assumed): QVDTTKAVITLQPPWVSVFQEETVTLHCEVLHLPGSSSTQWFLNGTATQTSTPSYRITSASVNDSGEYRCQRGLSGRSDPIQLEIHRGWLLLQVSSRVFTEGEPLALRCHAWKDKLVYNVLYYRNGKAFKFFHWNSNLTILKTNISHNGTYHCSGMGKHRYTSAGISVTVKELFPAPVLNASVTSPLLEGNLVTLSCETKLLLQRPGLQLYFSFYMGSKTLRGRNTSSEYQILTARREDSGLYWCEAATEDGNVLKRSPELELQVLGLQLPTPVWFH
In words: SPR (Biacore T200, pH 7.4, 25 °C): His-tagged FcγR captured by anti-His antibody; antibody injected at 100 nM alone (Ab alone) or as 1:1 complex with trimeric CD154 (CD154 IC); binding level / capture level [A].

In a further assay the target is T3, human FcγRIIb (human, UniProt P31994 43-217).
T3 construct: also called human FcγR2b
T3 sequence: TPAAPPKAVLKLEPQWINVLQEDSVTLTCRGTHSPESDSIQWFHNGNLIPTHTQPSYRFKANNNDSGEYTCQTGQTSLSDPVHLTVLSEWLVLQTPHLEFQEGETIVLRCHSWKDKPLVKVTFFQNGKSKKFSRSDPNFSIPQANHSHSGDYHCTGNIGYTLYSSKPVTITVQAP
In words: SPR (Biacore T200, pH 7.4, 25 °C): His-tagged FcγR captured by anti-His antibody; antibody injected at 100 nM alone (Ab alone) or as 1:1 complex with trimeric CD154 (CD154 IC); binding level / capture level [D]. On the technique in general: In SPR one partner is held on a chip, and binding of the other changes the refractive index at the surface.

In another assay the target is T4, human FcγRIIIa (158F) (human, UniProt P08637 17-208).
T4 construct: also called human FcγR3a allelic variant 158F
Put plainly: SPR (Biacore T200, pH 7.4, 25 °C): His-tagged FcγR captured by anti-His antibody; antibody injected at 100 nM alone (Ab alone) or as 1:1 complex with trimeric CD154 (CD154 IC); binding level / capture level [E].

For another assay, the target named is T5, human FcγRIIIa (158V) (human, UniProt P08637 17-208).
T5 construct: also called human FcγR3a allelic variant 158V
In words: SPR (Biacore T200, pH 7.4, 25 °C): His-tagged FcγR captured by anti-His antibody; antibody injected at 100 nM alone (Ab alone) or as 1:1 complex with trimeric CD154 (CD154 IC); binding level / capture level [F].

A further assay addresses T6, human FcγRIIIb (NA1) (human, UniProt O75015 17-200).
T6 construct: also called human FcγR3b allelic variant NA1
T6 chain: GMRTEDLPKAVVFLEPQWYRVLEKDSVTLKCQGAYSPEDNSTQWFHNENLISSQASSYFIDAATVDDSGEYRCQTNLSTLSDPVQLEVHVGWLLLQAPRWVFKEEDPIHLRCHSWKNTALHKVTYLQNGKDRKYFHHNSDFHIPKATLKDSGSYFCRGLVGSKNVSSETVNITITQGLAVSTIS
In words: SPR (Biacore T200, pH 7.4, 25 °C): His-tagged FcγR captured by anti-His antibody; antibody injected at 100 nM alone (Ab alone) or as 1:1 complex with trimeric CD154 (CD154 IC); binding level / capture level [G].

In a further assay the target is T7, human FcγRIIIb (NA2) (human, UniProt O75015 17-200).
T7 construct: also called human FcγR3b allelic variant NA2
T7 chain: T6 chain with R20S, N49S, D66N, V90I
In words: SPR (Biacore T200, pH 7.4, 25 °C): His-tagged FcγR captured by anti-His antibody; antibody injected at 100 nM alone (Ab alone) or as 1:1 complex with trimeric CD154 (CD154 IC); binding level / capture level [H].

The target in another assay is T8, mouse FcγRI (mouse, UniProt P26151 25-297).
T8 construct: also called mFcγRI; mouse FcγR1
T8 sequence: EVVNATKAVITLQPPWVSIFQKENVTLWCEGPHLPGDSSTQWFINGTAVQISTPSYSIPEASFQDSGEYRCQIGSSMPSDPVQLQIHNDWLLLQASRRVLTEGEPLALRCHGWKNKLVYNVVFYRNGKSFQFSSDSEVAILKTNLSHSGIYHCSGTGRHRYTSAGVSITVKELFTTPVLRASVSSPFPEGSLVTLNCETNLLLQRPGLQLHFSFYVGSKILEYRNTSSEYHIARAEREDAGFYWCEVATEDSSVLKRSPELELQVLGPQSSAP
In words: SPR (Biacore T200, pH 7.4, 25 °C): His-tagged FcγR captured by anti-His antibody; antibody injected at 100 nM alone (Ab alone) or as 1:1 complex with trimeric CD154 (CD154 IC); binding level / capture level [A].

In a further assay the target is T9, mouse FcγRIII (mouse, UniProt P08508 31-215).
T9 construct: also called mFcγRIII; mouse FcγR3
T9 chain: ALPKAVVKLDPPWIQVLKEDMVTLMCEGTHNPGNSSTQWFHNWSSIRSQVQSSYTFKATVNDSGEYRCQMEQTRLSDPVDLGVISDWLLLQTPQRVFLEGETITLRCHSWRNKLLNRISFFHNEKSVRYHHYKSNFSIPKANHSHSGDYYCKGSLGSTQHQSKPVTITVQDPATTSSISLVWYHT
In words: SPR (Biacore T200, pH 7.4, 25 °C): His-tagged FcγR captured by anti-His antibody; antibody injected at 100 nM alone (Ab alone) or as 1:1 complex with trimeric CD154 (CD154 IC); binding level / capture level [C].

The target in a further assay is T10, mouse FcγRIV (mouse, UniProt A0A0B4J1G0 21-203).
T10 construct: also called mFcγRIV; mouse FcγR4
T10 sequence: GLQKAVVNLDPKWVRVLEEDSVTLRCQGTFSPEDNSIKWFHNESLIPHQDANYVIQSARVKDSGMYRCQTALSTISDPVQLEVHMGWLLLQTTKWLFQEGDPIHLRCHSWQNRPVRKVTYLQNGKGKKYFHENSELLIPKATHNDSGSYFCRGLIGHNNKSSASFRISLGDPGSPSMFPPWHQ
In words: SPR (Biacore T200, pH 7.4, 25 °C): His-tagged FcγR captured by anti-His antibody; antibody injected at 100 nM alone (Ab alone) or as 1:1 complex with trimeric CD154 (CD154 IC); binding level / capture level [D].

The target in a further assay is T11, mouse FcγRIIb (mouse, UniProt P08101 30-210).
T11 construct: also called mFcγRIIb; mouse FcγR2b
T11 sequence: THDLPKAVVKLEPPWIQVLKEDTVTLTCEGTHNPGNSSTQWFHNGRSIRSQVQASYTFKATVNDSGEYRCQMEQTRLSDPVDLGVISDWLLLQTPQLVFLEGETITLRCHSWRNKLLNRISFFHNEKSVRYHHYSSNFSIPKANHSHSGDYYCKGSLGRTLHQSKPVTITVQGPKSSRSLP
In words: SPR (Biacore T200, pH 7.4, 25 °C): His-tagged FcγR captured by anti-His antibody; antibody injected at 100 nM alone (Ab alone) or as 1:1 complex with trimeric CD154 (CD154 IC); binding level / capture level [B].

The target in assay [2] is T1, human C1q (Calbiochem). Put plainly: ELISA: antibody coated on the plate at the concentration shown, human C1q added, detected with HRP anti-human C1q, OD 450 nm. This is another data set of the same source. On the technique in general: An ELISA detects its analyte on a solid surface through an enzyme-linked reagent.
In assay [3] the target is T12, Recombinant soluble E protein (0.8E-His) from DENV-3 (DENV-3, UniProt P27915 281-673).
T12 construct: also called DENV-3 E protein; DV3

For assay [4], the target named is T12, Recombinant soluble E protein …. The source holds these as a separate data set.
Assay [5] addresses T13, Recombinant soluble E protein (0.8E-His) from DENV-1 (DENV-1, UniProt P27909 281-675).
T13 construct: also called DENV-1 E protein; DV1

Assay [6] has as its target T14, Recombinant soluble E protein (0.8E-His) from DENV-2 (DENV-2, UniProt P14340 281-675).
T14 construct: also called DENV-2 E protein; DV2

For assay [7], the target named is T15, Recombinant soluble E protein (0.8E-His) from DENV-4 (DENV-4, UniProt P09866 280-674).
T15 construct: also called DENV-4 E protein; DV4

The target of assay [8] is T13, Recombinant soluble E protein …. The source holds these as a separate data set.

T1 sequence (P02745 23-245 limits assumed, chain 1 of 3): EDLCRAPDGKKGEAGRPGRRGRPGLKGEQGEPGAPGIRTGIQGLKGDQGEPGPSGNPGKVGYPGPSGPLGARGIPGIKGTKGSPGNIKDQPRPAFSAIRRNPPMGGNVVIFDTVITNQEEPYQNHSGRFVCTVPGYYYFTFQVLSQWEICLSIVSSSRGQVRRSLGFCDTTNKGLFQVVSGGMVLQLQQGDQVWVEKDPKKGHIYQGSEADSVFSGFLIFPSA
T1 sequence (P02746 28-253 limits assumed, chain 2 of 3): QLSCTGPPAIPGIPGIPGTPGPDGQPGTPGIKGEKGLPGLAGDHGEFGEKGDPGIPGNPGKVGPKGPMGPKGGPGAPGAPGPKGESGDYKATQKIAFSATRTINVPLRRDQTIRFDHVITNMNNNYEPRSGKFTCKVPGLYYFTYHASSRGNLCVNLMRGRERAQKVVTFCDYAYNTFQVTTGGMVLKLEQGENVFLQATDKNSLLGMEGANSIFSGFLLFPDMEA
T1 sequence (P02747 29-245 limits assumed, chain 3 of 3): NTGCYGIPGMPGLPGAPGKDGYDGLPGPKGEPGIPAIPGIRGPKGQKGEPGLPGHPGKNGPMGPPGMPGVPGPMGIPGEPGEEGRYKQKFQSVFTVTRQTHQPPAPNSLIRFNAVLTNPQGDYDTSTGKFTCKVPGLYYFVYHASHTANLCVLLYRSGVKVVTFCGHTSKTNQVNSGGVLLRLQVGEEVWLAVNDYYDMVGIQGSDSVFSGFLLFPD

B1: Anti-CD154 antibody (SLAPH0336a/SLAPL0336a) with Fc variant LALA+EFT (SG1090) (antibody, human IgG1, kappa, L234A L235A)
heavy: EVQLVESGGGSVKPGGSLKLSCAASGFTFSDHYMYWVRQTPEKRLEWVAIISGGGSYTSYPDSMKGRFTISRDNAKNILHLQMSSLKSEDTAMYYCTRESNGKPGFAYWGQGTLVTVSAASTKGPSVFPLAPSSKSTSGGTAALGCLVKDYFPEPVTVSWNSGALTSGVHTFPAVLQSSGLYSLSSVVTVPSSSLGTQTYICNVNHKPSNTKVDKRVEPKSCDKTHTCPPCPAPEAAGGPSVFLFPPKPKDTLMISRTPEVTCVVVDVEFEDPEVKFNWYVDGVEVHNAKTKPREEQYNSTYRVVSVLTVLHQDWLNGKEYKCKVTNKALPAPIEKTISKAKGQPREPQVYTLPPSREEMTKNQVSLTCLVKGFYPSDIAVEWESNGQPENNYKTTPPVLDSDGSFFLYSKLTVDKSRWQQGNVFSCSVMHEALHNHYTQKSLSLSP
light: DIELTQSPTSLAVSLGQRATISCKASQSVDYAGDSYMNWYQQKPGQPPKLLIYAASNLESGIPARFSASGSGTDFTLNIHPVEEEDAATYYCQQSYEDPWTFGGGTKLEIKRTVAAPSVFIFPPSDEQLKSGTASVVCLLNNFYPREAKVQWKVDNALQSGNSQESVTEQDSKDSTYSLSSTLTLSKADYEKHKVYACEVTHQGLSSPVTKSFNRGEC
As usually defined, the EC50 (read off the curve) is the concentration giving half of the maximal effect. Read a high EC50 (read off the curve) as weaker potency. As for B1, the “EC50 (read off the curve)” value with human C1q (Calbiochem) [1] was around 2 µg/mL. The binding result in the assay with human FcγRIa is recorded as “binds”; in the assay with human FcγRIIb it was “binds”; with human FcγRIIIa (158F), “no binding (tested: 100 nM)”; with human FcγRIIIa (158V), “binds”; with human FcγRIIIb (NA1), “no binding (tested: 100 nM)”; with human FcγRIIIb (NA2) it was “no binding (tested: 100 nM)”. Also, the figures for the binding result with mouse FcγRI, with mouse FcγRIII and with mouse FcγRIV were “no binding (tested: 100 nM)”, “binds” and “no binding (tested: 100 nM)”, respectively.

B2: Anti-CD154 antibody (SLAPH0336a/SLAPL0336a) with Fc variant LALA+EFT+AE (SG1089) (antibody, human IgG1, kappa)
heavy: B1 heavy with G238A, I334E
light: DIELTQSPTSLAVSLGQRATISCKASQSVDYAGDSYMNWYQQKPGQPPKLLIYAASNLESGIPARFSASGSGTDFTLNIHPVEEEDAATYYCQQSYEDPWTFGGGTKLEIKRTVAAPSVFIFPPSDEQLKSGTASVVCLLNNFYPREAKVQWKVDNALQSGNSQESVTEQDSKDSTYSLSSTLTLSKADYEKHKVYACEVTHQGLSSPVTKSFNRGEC
As for B2, the “EC50 (read off the curve)” value in the assay with human C1q (Calbiochem) [1] was around 3 µg/mL. In addition, the binding result with human FcγRIa is listed as “binds”; in the assay with human FcγRIIb, “binds”; with human FcγRIIIa (158V), “binds”; with human FcγRIIIb (NA1) it was “no binding (tested: 100 nM)”; in the assay with mouse FcγRI, “no binding (tested: 100 nM)”; in the assay with mouse FcγRIII it was “binds”. The binding result with mouse FcγRIV is given as “binds”.

B3: EFT+AE (antibody, human IgG1, kappa)
heavy chain: B1 heavy with A236L, A237L, G238A, I334E
light chain: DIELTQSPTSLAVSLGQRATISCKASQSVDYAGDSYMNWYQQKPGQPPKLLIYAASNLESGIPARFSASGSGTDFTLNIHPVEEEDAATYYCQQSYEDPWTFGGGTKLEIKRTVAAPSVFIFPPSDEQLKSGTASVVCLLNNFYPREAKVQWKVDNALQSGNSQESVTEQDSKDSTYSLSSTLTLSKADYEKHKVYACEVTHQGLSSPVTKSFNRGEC
notes: also called Anti-CD154 antibody (SLAPH0336a/SLAPL0336a) with Fc variant EFT+AE (SG1086); SG1086
For the molecule B3, the binding result with human FcγRIa, with human FcγRIIb, with human FcγRIIIa (158F), in the assay with human FcγRIIIa (158V), with human FcγRIIIb (NA2) and with mouse FcγRI was “binds” throughout. The binding result with mouse FcγRIIb, in the assay with mouse FcγRIII and with mouse FcγRIV was “binds” throughout.

B4: Anti-CD154 antibody (SLAPH0336a/SLAPL0336a) with Fc variant LALA+KWES (SG1088) (antibody, human IgG1, kappa, L234A L235A)
heavy: B1 heavy with E269S, F270H, T326S, K328W, E335S
light: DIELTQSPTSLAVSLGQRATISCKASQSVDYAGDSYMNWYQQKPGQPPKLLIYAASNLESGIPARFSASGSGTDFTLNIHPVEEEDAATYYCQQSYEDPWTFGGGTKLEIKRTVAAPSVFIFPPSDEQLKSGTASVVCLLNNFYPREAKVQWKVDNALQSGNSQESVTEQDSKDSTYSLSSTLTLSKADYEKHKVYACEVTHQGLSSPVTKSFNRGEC
Turning to B4, the “EC50 (read off the curve)” value in the assay with human C1q (Calbiochem) [1] is around 2 µg/mL; with human C1q (Calbiochem) [2], around 3 µg/mL. The binding result with human FcγRIa is listed as “binds”.

B5: DG_3CH1047-SG182/3CL658-SK1 (antibody, human IgG1, kappa, V domains shown)
VH: QVQLVQSGPDVEKPGASVKVSCKASGYTFTSYYMHWVRQAPGQGLEWMGVINPRGGSRRSAQKFQGRITMTRDTSTSTVYMELSSLRSEDTAVYYCARGGEALFYDSYTTPFDGGSWWFDPWGQGSLVTVSS
VL: DIQLTQSPSSLSASVGDRVTFTCQASQEIRKYLNWYQQKPGKAPKLLIYDASELKTGVPSRFSGSGSGTDFTFTISSLQPEDVATYYCQQFEDLPITFGQGTRLQIKR
notes: also called 3Cam
What is called Kd is the constant that tells how readily two partners part at equilibrium. With B5, the Kd was 0.00382 nM in assay [3]; 0.00501 nM in assay [4]; 3.51 nM in [5]; 0.765 nM in assay [6]; 9.11 nM in assay [7]; 2.98 nM in assay [8].
